Measurements taken from the nanobody polyreactivity screen of Harvey et al. (2022).

Experiment: yeast display, Sf9 membrane polyspecificity reagent, FACS + sequencing; frameworks hold sequencing errors
Method in brief: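 In a synthetic yeast display library (Saccharomyces cerevisiae BJ5465), nanobody expression was induced with galactose for 36–48 hours. FACS gates were set low and high (top ~1%) using anti-HA fluorescence for expression and streptavidin fluorescence for binding of the Sf9 membrane reagent. Each polyreactivity label is drawn from the gate of origin.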

Sequence | polyreactivity (PSR sort gate)
KVQLVESGGGLVQAGGSLRLSCAASGSISANYAMGWYRQAPGKERELVAAISRRGASTYYADSVKGRFTISRDNAKNTVYLQMNSLKPEDTAVYYCNAKKYHVPGVDYWGQGTQVTVSS | high polyreactivity
KVQLVESGGGLVQAGGSLRLSCAASGSTFSLYTLGGYRQAPGTERELVAAITNGGSTKYADSVKGRFTISRDNAKNTDYFQMNSLKPEDTAVYYCAALYSHYYWIEYDYWGQGTQVTVST | low polyreactivity
KVQLVESGGGLVQAGGSLRLSCAASGSTFYQYAMGWYRQAPGKERELVAVITGSGGSTYYADSVKGRFTISRDNAKNTVYLQMNSLKPEDTAVYYCAAGARYFKYRTTSLGGNYWGQGTQVTVSS | high polyreactivity
KVQLVESGGGLVQAGGSLRLSCDASGSTFQYYTMGWYRQAPGKESELVAAISADGGNTYYADSVKGRFTISRDNAKNTVYLQMNSLKPEDTAVYYCNADVSLTLRTLVPGRAYDYWGQGTQVTVSS | low polyreactivity
KVQLVESGGGLVQAGGTLRLSCAASGSTFTPYAMVWYRQAPGKERELVAAIWIGGNTYYADSVKGRFTISRDNAKNTVYLQMNSLKPEDTAVYYCATENVDPDHYYDWGYDYWGQGTQVTVSS | low polyreactivity
KVQLVESGGVLVQEGGRLRLSCAASGRTFQLNAMGWYRQAPGKEMELVAAISTRGGSTYYADSVKGRFTISRDNAKNSVYLQMNSLKPEDTAGYYCAKDPSFTRGYKEGGGYDYWGQGTQVTVSS | high polyreactivity
KVQLVESRGGLVQAGGSLRLSCAASGRTFIRYAMGWYRQAHGKEREFVAAITWSGGSTYYADSVKGRFTISRDNAKNTVYLQMNSLKPEDTAVYYCAKYPAARAVDYWGQGSQVTVSS | high polyreactivity
LLQLVESVGGLVQAGGTLRLSCAASRSTFHANTLGGYRKAPGKERELVAAISIRGANTYYADSVKGRLTISSDNAKNTVYLQMNSLKREDTAVYYCATRVRKYSLRLDYWGQGTQVTVSS | high polyreactivity
LVQLQESGGGLVQACGSLRLSCAASGDIFDADIMGWYRQAPGKERELVASITDGGSTNYADSVKGRFTISRDNAKNTVYLPMNSLKPEDTAVYYCAKPATYYELDYWGQGTQVTVSS | low polyreactivity
LVQLQESGGGLVQAGGSLRLSCAASGSIYKVVDMGLYRQAPAKEREFVATIGEGGNTYYADSVKGRFTISRDNAKNTVYLQMNSLKPEDTAVYYCNDDIGVYAYESDYWGQGTQVTVSS | low polyreactivity
LVQLQESGGGLVQAGGSLRLSCAASGTISPGGYMGWYRQAPGKERELVASMNVGGSTNYADSVKGRFTISRDNAIITVYLQMNSLKPEDNAVYYCAVWGRNRLQLSYWGQGTQVTVSS | low polyreactivity
LVQLVESGGGLVQAGGSLRLICAASGITISYNAMGWYRQAPGKERELVAAITGSDGITYYADSVKGRFTISRDNAKNTVYLEMNSLKPEDTAVYYCAAEWWDYWYEYDYWGQGTQVTVSS | high polyreactivity
LVQLVESGGGLVQAGGSLRLSCAASGFTFGRNAMGWYRQSPGKEREFVADISGSVGSTYYADSVKGRFTISRDNAKNSVYLQMNRLIPEDTAVYYCAADTLYPRWEFDYWGQGTQVTVSS | high polyreactivity
LVQLVESGGGLVQAVGSLRLSCAASGFTIYGNAMGWYRRAPGKERELVAAITWRGGSTYYADSEKGRFTISRDNAKNTVYLQMNSLKPEDTAVYYCNALKGRPVRSYLASPSYRYDYWGQGTQVTVSS | high polyreactivity
PVQIVESGGGLVQAGGSLRLSCAASGFTFYSNAMGWYRQAPGKEWEMVAAISFSGTRTYYADSVKGRFTISRDNEKNTVYLQMNSLKPEDTAVYYCNAVAYNYPRTYDYWGQGTQVTVSS | high polyreactivity
PVQLVDSGGGLVQAGGSLRLSCAASGRIFYGYALGWYRQAPGKERDLDAAIDWSGGSTYADSVTGRFTISRDNAKNTVYLPMHSLKPEDTAVYYCATDWVTSQQPYYWIYEYWGQGTQVTVSS | low polyreactivity
PVQLVDSGGGLVQAGGSLRLSCAASGSTFQRNVMGWYRQAPGKERELVAAITWRGTSTYYADSVKGRFTISRDNAKNTVYLQMNSLKPEDTAVYYCAAERTRSGYYYDYWGQGTQVTVSS | high polyreactivity
PVQLVESGGGFVQAGGSLRLSCAASGFTFYVNAMGWYRQAPGKERELVAAISGSGGSTYYADSVKGRFTISRDNAKNTVYLQMNSLKPEDTAGYYCAADAYNPPYWDDPYDYWGQGTQVTVSS | high polyreactivity
PVQLVESGGGLVQAGGSLRLICAASGRIFEINAMGWYRQAPGKERELFAAITRGGRTYYADSVKGRFTSSRDNAMNTVYLQMTSLKPEDTAVYYCAAYGHIRSGFDCVDYWGQGTQVTVSS | high polyreactivity
PVQLVESGGGLVQAGGSLRLSCAASGFIFSWYAMGWYRPAPGKDRELVAAISRSGGSTYADSVKGRFTIARDNAKNTVYLQMNSLKPEDTAVYYCAAGSYWSYWDSRYDYWGQGTQVTVSS | low polyreactivity
PVQLVESGGGLVQAGGSLRLSCAASGSIFASYAMGWYREAPGKERELVAAISSSSGSTYYADSVKGRFTISRDNAKNTVYLQMTSLKPEDTAVYYCAAESGRRIKYWRGYYYWGQGTQVTVSS | low polyreactivity

Sequence | polyreactivity (PSR sort gate)
PVQLVESGGGLVQAGGSLRLSCAASGSNFEYYTMGWYRQAPGKERELVATISRSADRTYYADSVKGRFTISRDYAKNTVYLQMNILKPEDTAVYDCAKLYPRTTQWIYDYWGQGTQVTVSS | high polyreactivity
PVQLVESGGGVVQAGGSLRLSCAASGSIFDENAKGWNRQAPGKERELVAAISSGGSTNYADSVKGRFTITRDNAKNTVYLQMNSLKPEDTAVYYCNNKSRRQYDYWGQGTQVTVSS | low polyreactivity
PVQLVESGGVLVQAGGSLRLSCAASGRTFSYYAMGWYRQAPGKERELVADNNCSGTSTDYADSVKGRFTISRDNAKNTVYLQMHSLKPEDTEVYYCPAYLIVYYGDETPYASLHDYWGQGTQVSVSS | low polyreactivity
PVQLVESGGVLVQAGGSLRVSCAASGSILLIYSMGWSIQAPGKERELVAGINWSGSRAYYADSVKGRFTISRDNAQNTVYLQMNSLKPEDTAVYYCAARGRRPLYSAYDSWGQGTQVTVSS | low polyreactivity
QAELVESGGGLVQAGGSLRLSSAASGIIFDVYAMGWYRQAPGKERELVASIRWRGGSTYYADSVKGRFTISRDNAKNTVFLQMNSLKPEDTAVYYCAADLTRWYGRTYNYWGQGTQVTVSS | high polyreactivity
QAQLVESGGGLVQAGGSLRLSCAASGSIMYYAMGWYRHAPWKERELVATITRGGSTYYADSVKGRFTISRDNAKNTVYLQMNSLKPEDTAVYYCAKQFLPSGVYYEYDSWGQGTQVTVSS | low polyreactivity
QCQREESGGGLVQAGGRLRLSCAASGLILIYYAMGWYRQAPGKERELVAAITSSGGSTYYADSVKGRFTISRDNAKNTVYLQMNSLKREDTAVYYCAAYYSGDGYYWGQGTQVTVSS | high polyreactivity
QDALVESCGGLVQAGGSLRLICAASGSTFDTYALGWYRQAPAKEWELVAGISWSGGSTFFADSVKGRFTISRDNAKNTVSLQMNSLKPEDTAVYDCAKQLWVGVKYDYWGQGPQVTVSS | low polyreactivity
QDDLVESGGGLVQAGGSLRFRGAASGYTFEKYAMGWKRQAPGKERELFASISWSGGRTRYADSVKGRFTISRDNAKNTDSLQMNSLQPEDTAVDYCAARGAYKSGYNRNEYWGQGTQVTVSS | high polyreactivity
QDELVESGGGLVQAGGSLRLSCAASGRIFPFYAMGWNRQAPGKERDFVAAITYSGGNTNYADSVKGRFTISRDNAKNTVYLQMNSLKPEDTAVYYCAAVLGYGDYYQEDYWGQGTQVTVSS | low polyreactivity
QDHLVESGGCLVQAGGTLRLSCAASGFTIGNYAMAWYRQPPGKERELVAAISWSGGSTYYADSVKGRFTISRDNAKNTVYLQMNSLNPEVTAVYYCNPKRGSLWESDYWGQGSQVTVSS | high polyreactivity
QDHLVESGGGLVQAGGSLRLSCAASGRIFSYYVMGWYRQAPGKERELVAAITSGCSTNYADSVKGRFTISRDNAKNNVYLQMNSLKPEDTAVYYFNRAYTYINRLYGYWGQGTQVTVSS | high polyreactivity
QDKLVESGGGLVQEGGRLRLSCAASGRIFGNYAMGWYRQAPGKERELVAAIDLSGDSTYYADSVKGRFTISRDNAKYTVYLQMKSLKPEDTAVYYCAATDWFSEYYWGQGTQETVSS | low polyreactivity
QDLLVESGGGLVQAGGSLRLRCAASGITFAFYTMGWYRQAPGKPSELVTAISYSGGRTYNADSVKGRFTISRDNAKYTVYVQMLSLKPEDTAVYYCNTRYRGSYDYWGQGTQVTVSS | high polyreactivity
QDLLVESGGGLVQAGGSLRLSCAASGRTFWDYTMGWYRQAPGKDRELVASITRTCRTNYADSVKGRFTISRDNAKNTVYLQMNSLKTEDTAVYYCAAEVGYQGWYPSGYKFDYWGQGTQVTVSS | high polyreactivity
QDQHVESGGCLVQAGGSLRLSCAASGRTFVRNTMGWYRQAPGKEREFVAAISRSGGNTHYADSVKGRFTISRDNAKNTVYLQMNSLKPEDTAVYYCATRAGYEVYPNKMNYWGQGTQVTVSS | high polyreactivity
QDQHVESGGGIVQAGGSLRLICAASGRTFANNAMGWYRQAPGKERELVAAISWSGGSTYYADSVKGRFTISRDNAKNTVYLQMNSLKPEDTAVYYCAADSPRYGGYGYWGQGTHVTVSS | low polyreactivity
QDQHVESGGGLVQAGGSLPLSCADSGSIFPRNAMGWYRQAPGKERELVAAISRIGGSTYYADAVKGRFTISRDNAKNTVYLQMNSLKPEDTAVYYCAAPPSEWQHDYWGQGTQVTVSS | low polyreactivity
QDQHVESGGGLVQAGGSLRLICAASGNTFGWYAMGWYRQAPGKEREFVADISWSGGSTYYADSVKGRFTISRDNAKNTVYLQMNSLKQEDTAVYYCNAVWLYYWHADQYFEYDYWGQGTQVTVSS | high polyreactivity
QDQHVESGGGLVQAGGSLRLICAASGSIIQVYAIGWYRQAPGKEREFVASITRTGGSTKYADSVKGRFTISRDNAKNTVYLQMNSLKPEDTAFFYCNAVPRSWSPYRHWFDYWGQGTQVTVSS | low polyreactivity
